Measurements: the nanobody polyreactivity screen of Harvey et al. (2022)

Assay: yeast display, Sf9 membrane polyspecificity reagent, FACS + sequencing; frameworks hold sequencing errors
Method in brief: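 In a synthetic yeast display library (Saccharomyces cerevisiae BJ5465), nanobody expression was induced with galactose for 36–48 hours. FACS gates were set low and high (top ~1%) using anti-HA fluorescence for expression and streptavidin fluorescence for binding of the Sf9 membrane reagent. Each polyreactivity label is drawn from the gate of origin.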

Sequence | polyreactivity (PSR sort gate)
QVQLVESGGGLVQAGGSLRLSCAASGFIFPYYAMGWYRQAPGKERELVAAITSSGGSTYYADSVKGRFTISRDTAKNTVYLQMTSLKPEDNAVYYCNAYVRRTRDYDYWGQGTQVTVSS | high polyreactivity
QVQLVESGGGLVQAGGSLRLSCAASGFIFQANAMGWYRQAHGKERELVAAIRSGDRTYYADSVKGRFTISRDNAKNTVYLQMNSLKPEDTAVYYCAAFYHHYYRYDYWGQGTQVTVSS | low polyreactivity
QVQLVESGGGLVQAGGSLRLSCAASGFIFQAYAMGWYRQAPGKERELVASISYSGSRTYYADSVKGRFTISRDNAKNTVYLQMNSLKPEDTAVYYCAAGPRYWAPWFGRDYEYWGQGTQVTVSS | high polyreactivity
QVQLVESGGGLVQAGGSLRLSCAASGFIFQGYVMGWYRQAPGKEREFVAAISRSGGTTFYADSVKGRFTISRDNAKNTVYLQMNSLKPEDTAVYYCNRARLGRPGYDYWGQGTQVTVSS | high polyreactivity
QVQLVESGGGLVQAGGSLRLSCAASGFIFQRNAMGWYRQAPGKERELVAAISWTGGSTYYADSVKGRFTISRDNAKNTVYLQMNSLKPDVTAVYYCAKYGSGPYGYWGQGTQVTVSS | high polyreactivity
QVQLVESGGGLVQAGGSLRLSCAASGFIFRAYAKRWYRPAPGKERELFAALTKRSGTTYSADSVKRRFTISRDNAKNTVYVQMNSLKPEDTAVYFCAAKTLYNSGTQDRAMGYWGQGTQVTVSS | high polyreactivity
QVQLVESGGGLVQAGGSLRLSCAASGFIFRDNAMGWYRQAPGKERELVAAISKSGGRTYYADSVKGRFTISRDNAKNTVYLLMNSLKPEDTAVYYCAADTYYNLGNYWGQGTQVTVSS | high polyreactivity
QVQLVESGGGLVQAGGSLRLSCAASGFIFRDNAMGWYRQAPGKERELVAASSSRGGSTYYADSVKGRFTISRDNAKNTVYLQMNSLKPEDTAVYYCAKRPYKYRVQLDSWGPGTQVTVSS | high polyreactivity
QVQLVESGGGLVQAGGSLRLSCAASGFIFRFNAMGWYRQAPGKERELVAGITWSGGSTYYADSVKGRFTISRDNAKNTVYLQMNSLKPEDTAVYYCAADNPYLGRKFDYWGQGTQVTVSS | high polyreactivity
QVQLVESGGGLVQAGGSLRLSCAASGFIFRGNGMGWYRQAPGNERELVAAISKSGGRTYYADSVKGRFTISRDNAKNTVYLQMNSLKPEDTAVYYCNARRFWRGDYWGQGTQVTVSS | high polyreactivity
QVQLVESGGGLVQAGGSLRLSCAASGFIFRGYAMGWYRQAPGKERELVAAISRRGGSTYYADSVKGRFTISRDNAKNTVYLQMNSLKPEDTAVYYCNARIRYVYWHSYDYWGQGTQVTVSS | high polyreactivity
QVQLVESGGGLVQAGGSLRLSCAASGFIFRGYAMGWYRQAPGKERELVAAITGGGGRTYYADSVKGRFTISRDNAKNTVYLQMNSLKPEDTAVYYCARRFAYSFDYGYWGQGTQVTVSS | high polyreactivity
QVQLVESGGGLVQAGGSLRLSCAASGFIFRKYAMGWYRQAPGKERELVAAIRQRGGTTYYADSVKGRFTISRDNAKNTVYLQMNSLKPEDTAVYYCAAPYSSAYKYDYWGQGTQVTVSS | high polyreactivity
QVQLVESGGGLVQAGGSLRLSCAASGFIFRKYAMGWYRQAPGTERELVAAIRQRGGTTYYADSVKGRFTISRDNAKNTVSLQMNSLKPEDTAVNYCAAPYSSAYKYDYWGQGTQVTVSS | high polyreactivity
QVQLVESGGGLVQAGGSLRLSCAASGFIFRLNTMGWYRQAPGKERELVATISSGGSTNYADSVKGRFTISRDNAKITVYLQMNSLKPEDTAVYYCAKKKTRYGGSYNYWGQGTQVTVSS | high polyreactivity
QVQLVESGGGLVQAGGSLRLSCAASGFIFRLYDMVRYRQAPGKERELVAAISSGGRTNYADSVKGRFTISSDNPKNTVYLQMNSLKPEDTAVYYCAARSIFGYRSYGYWGQGTQVTVSS | high polyreactivity

Sequence | polyreactivity (PSR sort gate)
QVQLVESGGGLVQAGGSLRLSCAASGFIFRPYVMGWYRQAPGKERELVAAISRSGSSTYYADSVKGRFTISRDNAKNTVYLQMNSLKPEDTAVYYCNAVYYLYKGDYWGQGTQVTVSS | high polyreactivity
QVQLVESGGGLVQAGGSLRLSCAASGFIFRRNTMGWYRQAPGKERELVAVITWSGGRTYYADSVKGRFTISRDNAKNTVYLQMNSLKPEDTAVYDCTAEQWWSLDYWGQGTQVTVSS | low polyreactivity
QVQLVESGGGLVQAGGSLRLSCAASGFIFRRYAMGWYRQAPGKERELVAAIRWDDGNTYYADSVKGRFTISRDNAKNTVYLQMNSLKPEDTAVYYCYADKWSSTDDWLYDYWGQGTQVTVSS | low polyreactivity
QVQLVESGGGLVQAGGSLRLSCAASGFIFRRYAMGWYRQAPGKERELVAAISSGGRTYYADSVKGRFTISRDNAKNTVYLQMNSLKPEDTAVYYCAAYSPYLRSWYDYWGQGTQVTVSS | high polyreactivity
QVQLVESGGGLVQAGGSLRLSCAASGFIFRRYAMGWYRQAPGKERELVAAITRSGGSTYYADSVKGRFTISRDNAKNTVYLQMNSLKPEDTAVYYCAAPYFGANGKPEYGYWGQGTQVTVSS | high polyreactivity
QVQLVESGGGLVQAGGSLRLSCAASGFIFRRYAMGWYRQAPGKERELVAAITRSGGSTYYADSVKGRFTISRDTSKNTVYLQMNSLNPEDTAVYYCATKSSGPVLGYGYDYWGQGTQVTVSS | high polyreactivity
QVQLVESGGGLVQAGGSLRLSCAASGFIFRRYTMGWYRQAPGKERELVATITRSVNTDYADSVKGRFTISRDNAKNTVYLQMNSLKPEDTAVYYCAARKYYYFPVAYDYWGQGTQVTVSS | high polyreactivity
QVQLVESGGGLVQAGGSLRLSCAASGFIFRRYVMGWYRQAPGKERELVAAISNGGGRTYYADSVKGRFTISRDNAKNTVYLQMNSQKPEDTAVYYCAAYPRGPLAPDYDYWGQGTQVSVSS | high polyreactivity
QVQLVESGGGLVQAGGSLRLSCAASGFIFRSYAMGWYRQAPGKERELVAAISDGGGSTYYADSVKGRFTISRDNAKKTVYLQMNSLKPEDTAVYYCNAVYHPKGPSGYGYWGQGTQVTVSS | low polyreactivity
QVQLVESGGGLVQAGGSLRLSCAASGFIFRSYAMGWYRQAPGKERELVAAISFSGGRTYYADSVKGRFTISRDNAKNTVYLQMNSLKPEDTAVYYCAAVPARIGVVLHIYTDSHYDYWGQGTQVTVSS | low polyreactivity
QVQLVESGGGLVQAGGSLRLSCAASGFIFRSYAMGWYRQAPGKERELVAAITKSGGRTYYADSVKGRFTISRDNAKNTVYLQMNSLKPEDSAVYYCAADQTSYSTSRRYDYWGQGTQVTVSS | high polyreactivity
QVQLVESGGGLVQAGGSLRLSCAASGFIFRSYAMGWYRQAPGKERELVAAITRSGGSTYYADSVKGRFTISRDNAKNTDYLQMNSLKPEDTAVYYCATRRYWYYILDYWGQGTQVTVSS | high polyreactivity
QVQLVESGGGLVQAGGSLRLSCAASGFIFRSYVMGWYRQAPGKERELVAAITRSGVRTYYADSVKGRFTISRDNAKNTVYLQMNSLKPEDTAVYYCNADFSATRYWPGNYWGQGTQVTVSS | high polyreactivity
QVQLVESGGGLVQAGGSLRLSCAASGFIFRTNAMGWYRQAPGKERELVAAITSSGGTTFYADSVKGRFTISRDNAKNTVYLQMNSLKPEDTAVYYCAAAYKHRTRSWTYGYWGQGTQVTVSS | high polyreactivity
QVQLVESGGGLVQAGGSLRLSCAASGFIFRVNAMGWSRQEPGKERELVAAISASGGTTYYADSVKGRFTISRDNAKNTVYLQMNSQKPEDTAVYYCIAPSRTRYDFWGQGTQVTVSW | low polyreactivity
QVQLVESGGGLVQAGGSLRLSCAASGFIFRVNAMGWYRPAPGKERELVAAITKSGGSTYYADSVKGRFTISRDNAKNTVYLQMNSLKPEDTAVYYCNVVWYEGYGHWGQGTQVTVSS | low polyreactivity
